Target: Tet DNA binding domain only (UniProt P04483 1-207)
Experiment: mammalian two-hybrid luciferase reporter, Phoenix cells

Sequence of Tet DNA binding domain only (P04483 whole entry, the tested form may be a part): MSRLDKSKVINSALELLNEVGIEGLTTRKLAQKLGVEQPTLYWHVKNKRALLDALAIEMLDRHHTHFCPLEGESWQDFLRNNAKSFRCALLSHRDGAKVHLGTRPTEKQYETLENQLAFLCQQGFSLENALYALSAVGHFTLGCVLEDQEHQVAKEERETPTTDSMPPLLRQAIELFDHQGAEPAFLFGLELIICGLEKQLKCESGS

B1: VP16 activation domain only (other)
chain: APPTDVSLGDELHLDGEDVAMAHADALDDFDLDMLGDGDSPGPGFTPHDSAPYGALDMADFEFEQMFTDALGIDEYGG
notes: also called pVACT
binding result: no binding
